From the supplement of paper PMC10724198
± gives the standard deviation of the averaged measurements.

System: Saccharomyces cerevisiae
Assay: protein stability index of tFT-peptide fusion (C-terminal peptide) (PSI (0-1 scale)); higher = more stable (slower turnover)
Details: temperature: 30 C
Procedure: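 MPS profiling in S. cerevisiae of the yeast C-terminome library: the last 12 aa of each annotated ORF are fused to the C-terminus of a sfGFP-mCherry timer, after a GGGS linker. Cells are FACS-sorted into 8 mCherry/sfGFP bins and deep-sequenced. PSI runs from 0 (unstable) to 1 (stable); wild type and das1Δ backgrounds, two technical replicates each.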

[1] = genetic background: das1 deletion

Sequence	protein stability index [1]	protein stability index (genetic background: wild type)
RAEIVIEEAGEL [CPR3 C-terminal 12 aa]	0.683 ± 0.011	0.6789 ± 0.0032
TGKVFTRTNQSK [YFL019C C-terminal 12 aa]	0.71 ± 0.035	0.698 ± 0.011
ILRQARCDRPHY [YEL068C C-terminal 12 aa]	0.691 ± 0.02	0.727 ± 0.071
IGFNKLGQMVYI [MRPS35 C-terminal 12 aa]	0.669 ± 0.018	0.666 ± 0.029
AVGETRLKKSKK [PRP21 C-terminal 12 aa]	0.689 ± 0.016	0.779 ± 0.12
TALLIDNILTCK [MRM1 C-terminal 12 aa]	0.7 ± 0.021	0.694 ± 0.048
SLKTFINDVLSF [SLS1 C-terminal 12 aa]	0.7066 ± 0.0021	0.717 ± 0.029
STICRDIILIPN [CHK1 C-terminal 12 aa]	0.688 ± 0.03	0.6527 ± 0.0013
NEKLSRESKGSE [SYF2 C-terminal 12 aa]	0.687 ± 0.01	0.691 ± 0.014
QHQQENPNLIDI [YAP1802 C-terminal 12 aa]	0.707 ± 0.024	0.734 ± 0.063
EIVRNFSLFNMV [ARP3 C-terminal 12 aa]	0.697 ± 0.031	0.6866 ± 0.0035
KKVQSYTLQEDY [BUD13 C-terminal 12 aa]	0.695 ± 0.015	0.692 ± 0.03
KNRKRVLGVAYL [PXP3 C-terminal 12 aa]	0.783 ± 0.022	0.837 ± 0.063
NENSEIISIDED [CTR86 C-terminal 12 aa]	0.676 ± 0.0078	0.65 ± 0.023
PIRRQFYLNSRQ [YML047W-A C-terminal 12 aa]	0.701 ± 0.011	0.691 ± 0.017
LLEVSDQAFEPE [RGD1 C-terminal 12 aa]	0.6967 ± 0.0019	0.683 ± 0.053
EDSSDSSDSDSD [BDF2 C-terminal 12 aa]	0.669 ± 0.015	0.675 ± 0.068
NALKSKQKNKDD [AYR1 C-terminal 12 aa]	0.684 ± 0.0082	0.698 ± 0.044
VLERVSRGAGSH [COF1 C-terminal 12 aa]	0.7039 ± 0.0025	0.688 ± 0.036
VGLDDLKKLVTK [PCF11 C-terminal 12 aa]	0.713 ± 0.03	0.744 ± 0.099
DSTVLDFVESIS [HER2 C-terminal 12 aa]	0.7089 ± 0.005	0.694 ± 0.06

Sequence	protein stability index [1]	protein stability index (genetic background: wild type)
IEHYKSEQEKSL [MUP1 C-terminal 12 aa]	0.6971 ± 0.0015	0.67 ± 0.035
EVVRFYTIEAKL [AAT2 C-terminal 12 aa]	0.771 ± 0.032	0.724 ± 0.085
EVDDDGEIEGLF [MIS1 C-terminal 12 aa]	0.7072 ± 0.0051	0.684 ± 0.022
YPTFDDNNFFAL [RFA2 C-terminal 12 aa]	0.732 ± 0.012	0.717 ± 0.0086
KQIDVHLDKNKA [GCD7 C-terminal 12 aa]	0.6862 ± 0.004	0.697 ± 0.0038
LKEASRYILEVY [MET10 C-terminal 12 aa]	0.28 ± 0.013	0.31 ± 0.0096
ILRLRLRKATFD [PRM1 C-terminal 12 aa]	0.706 ± 0.023	0.708 ± 0.044
WPVTKPEDTKDN [ZWF1 C-terminal 12 aa]	0.699 ± 0.013	0.67 ± 0.018
KSEGGDLPHLVQ [SPS4 C-terminal 12 aa]	0.701 ± 0.024	0.68 ± 0.013
AKISDKENKAFL [MRPL15 C-terminal 12 aa]	0.6927 ± 0.0019	0.678 ± 0.025
ISPSKSITMVAE [YDR526C C-terminal 12 aa]	0.689 ± 0.011	0.6363 ± 0.0024
SRIKNACLHRMN [RRN7 C-terminal 12 aa]	0.6966 ± 0.0047	0.681 ± 0.035
RNYQKKGNKGCI [YCL076W C-terminal 12 aa]	0.687 ± 0.024	0.679 ± 0.034
GCVLGKLGYLKM [RAD33 C-terminal 12 aa]	0.719 ± 0.024	0.619 ± 0.07
GLNKNMLKKIIK [YPR084W C-terminal 12 aa]	0.715 ± 0.032	0.668 ± 0.03
GKNKKKSKHSKK [PRP43 C-terminal 12 aa]	0.702 ± 0.057	0.651 ± 0.0029
TTTEVETETAKQ [YPR063C C-terminal 12 aa]	0.679 ± 0.011	0.7 ± 0.027
TASTSNSRNQTM [SPO71 C-terminal 12 aa]	0.701 ± 0.03	0.687 ± 0.038
LTLARYRAKGML [TOM71 C-terminal 12 aa]	0.6936 ± 0.0042	0.657 ± 0.018
VVFLSVLKRNDL [YOL099C C-terminal 12 aa]	0.685 ± 0.031	0.772 ± 0.11
